Assay [1] addresses T1, huGPC3-His (human GPC3 with C-terminal polyhistidine tag, R&D Systems) (human, UniProt P51654 25-559, limits assumed).
T1 construct: Bought; not shown: C-terminal polyhistidine tag
Briefly: ELISA, huGPC3-His coated, detection anti-NGAL-HRP. The procedure:
Recombinant hu4-1BB-His (human 4-1BB with a C-terminal polyhistidine tag, R&D Systems) at the concentration of 1 μg/mL in PBS was coated overnight on microtiter plates at 4° C. After washing with PBS-0.05% T (PBS supplemented with 0.05% (v/v) Tween 20), the plates were blocked with 2% BSA (w/v) in PBS-0.1% T (PBS supplemented with 0.1% (v/v) Tween 20) for 1 h at room temperature. After washing with 100 μL PBS-0.05% T five times, exemplary multimeric proteins (SEQ ID NOs: 38-44 and 46-53) or 4-1BB-specific lipocalin mutein as included in the multimeric protein (SEQ ID NO: 64) at different concentrations, ranging from 100 to 0.002 nM, were added to the wells and incubated for 1 h at room temperature, followed by another wash step. Bound molecules under study were detected by incubation with 1:1000 diluted anti-NGAL-HRP in PBS-0.1% T-2% BSA. After an additional wash step, fluorogenic HRP substrate (QuantaBlu, Thermo) was added to each well and the fluorescence intensity was detected using a fluorescence microplate reader.
The same ELISA setup was also employed to determine the binding potency of exemplary bispecific multimeric proteins (SEQ ID NO: 54 and SEQ ID NO: 55) to GPC3, where huGPC3-His (human GPC3 with C-terminal polyhistidine tag, R&D Systems) was instead coated on a microtiter plate. The testing agents were similarly titrated and bound agents detected.

The target of assay [2] is T2, human 4-1BB on cells (human, UniProt Q07011 24-255). Briefly: cell-based or functional assay.
Assay [3] addresses T3, cynomolgus 4-1BB on CHO cells (cynomolgus, UniProt A9YYE7 24-254).
T3 construct: also called Flp-In-CHO::cyno4-1BB; cynomolgus 4-1BB-expressing CHO cells
Briefly: flow cytometry, Flp-In-CHO::cyno4-1BB cells. In a few lines:
(§1)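 Flp-In CHO cells stably expressing human or cynomolgus 4-1BB (mock-transfected control), 5×10⁴/well, incubated 1 h on ice with dilution series of test proteins. Binding detected with rabbit anti-NGAL or Alexa 488 anti-human IgG (30 min, ice); geometric mean fluorescence fitted by four-parameter nonlinear regression.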

The next assay deals with T4, hu4-1BB-Fc (R&D Systems) (human, UniProt Q07011 24-186).
T4 construct: Bought; also called human 4-1BB; not shown: human IgG Fc of the bought fusion
The assay is described as follows: SPR (Biacore 8K), hu4-1BB-Fc captured by anti-human IgG Fc; apparent value, 1:1 fit. In outline:
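hu4-1BB-Fc at 0.3 μg/mL captured for 180 s on amine-coupled anti-human IgG Fc (CM5 chip). Analyte contact 180 s, dissociation 1200 s or 3000 s, 30 μL/min, 25° C. Double-referenced sensorgrams fitted to a 1:1 binding model.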

Assay [4] has as its target T2, human 4-1BB on cells. The assay is described as follows: flow cytometry, Flp-In-CHO::hu4-1BB cells. In a few lines:
as §1

Assay [5] addresses T1, huGPC3-His (human GPC3 with C-terminal …). Briefly: dual-binding ELISA, huGPC3-His coated, detection with biotinylated hu4-1BB-His and Extravidin-HRP. The procedure: Recombinant huGPC3-His (human GPC3 with C-terminal polyhistidine tag, R&D Systems) at the concentration of 1 μg/mL in PBS was coated overnight on microtiter plates at 4° C. After washing with PBS-0.05% T (PBS supplemented with 0.05% (v/v) Tween 20), the plates were blocked with 2% BSA (w/v) in PBS-0.1% T (PBS supplemented with 0.1% (v/v) Tween 20) for 1 h at room temperature. After washing with 100 μL PBS-0.05% T five times, exemplary multimeric proteins (SEQ ID NOs: 54 and 55) at different concentrations, ranging from 100 to 0.002 nM, were added to the wells and incubated for 1 h at room temperature, followed by another wash step. Bound molecules under study were detected by incubation with 1 μg/mL recombinant hu4-1BB-His (biotinylated human 4-1BB with C-terminal polyhistidine tag, Sino Biological) in PBS-0.1% T-2% BSA for 1 h. This step was followed by a further wash step and incubation with 1:5000 diluted Extravidin-HRP in PBS-0.1% T-2% BSA. After an additional wash step, fluorogenic HRP substrate (QuantaBlu, Thermo) was added to each well and the fluorescence intensity was detected using a fluorescence microplate reader.

Assay [6] addresses T5, human GPC3 on HepG2 cells (human, UniProt P51654 25-554).
T5 construct: whole, on cells; Endogenous GPC3 of the tumor cell line; also called GPC3-positive tumor cell line HepG2; human GPC3-expressing HepG2 cells
The assay is described as follows: flow cytometry, HepG2 cells. The procedure:
GPC3-positive tumor cell line HepG2 was cultured in Dulbecco's Modified Eagle's Medium ([…], Pan Biotech) supplemented with 10% Fetal Calf Serum (Sigma-Aldrich) and in cell culture flasks according to manufacturer's instruction (37° C., 5% CO₂ atmosphere).
(§2) 5×10⁴ cells per well were incubated for 1 h in ice-cold PBS containing 5% fetal calf serum (PBS-FCS). A dilution series of the tested multimeric proteins (SEQ ID NOs: 38-44 and 46-55), the 4-1BB-targeting lipocalin mutein as included in the multimeric proteins (SEQ ID NO: 64) or the GPC3-targeting lipocalin SEQ ID NO: 90 were added to the cells and incubated for 1 h on ice. Cells were washed twice with PBS and then incubated with a rabbit anti-NGAL or a goat anti-human IgG labeled with fluorescent dye Alexa 488 for 30 min on ice. Human IgG4 isotype (SEQ ID NOs: 29 and 30) and lipocalin mutein SEQ ID NO: 8 were tested as a negative control. Cells were subsequently washed and analyzed using iQue Flow cytometer (Intellicyte Screener). Mean geometric fluorescent signals were plotted and fitted with Graphpad software using nonlinear regression (shared bottom, four parameters, variable slope).

The target in assay [7] is T2, human 4-1BB on cells. Briefly: flow cytometry on CHO cells stably transfected with human 4-1BB, anti-NGAL detection, GeoMean BL1-H. The procedure: as §2
Target-specific binding of hexavalent trimeric proteins to human 4-1BB-, OX40- or PD-L1-expressing cells was assessed by flow cytometry as described in Example 5, using CHO cells stably transfected with human 4-1BB, human OX40 or human PD-L1 (Flp-In system; Life Technologies).

Assay [8] has as its target T6, recombinant hu4-1BB-His (human 4-1BB with a C-terminal polyhistidine tag, R&D Systems) (human, UniProt Q07011 24-186).
T6 construct: Bought; not shown: C-terminal polyhistidine tag
The assay is described as follows: ELISA, hu4-1BB-His coated, detection anti-NGAL-HRP. In outline: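 Plates coated with hu4-1BB-His (1 μg/mL, overnight, 4° C) and blocked with 2% BSA; test proteins at 100 to 0.002 nM bound 1 h at room temperature. Detection by anti-NGAL-HRP with fluorogenic substrate; EC₅₀ from 1:1 sigmoidal fit, slope fixed to one.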

T2 sequence (Q07011 24-255): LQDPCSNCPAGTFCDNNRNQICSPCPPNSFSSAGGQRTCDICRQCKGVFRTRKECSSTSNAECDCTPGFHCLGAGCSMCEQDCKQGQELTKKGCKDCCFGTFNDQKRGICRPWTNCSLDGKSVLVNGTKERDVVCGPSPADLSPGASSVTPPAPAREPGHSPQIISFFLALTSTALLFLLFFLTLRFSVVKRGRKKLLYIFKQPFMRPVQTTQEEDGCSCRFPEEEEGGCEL
T3 sequence (A9YYE7 entry or part of it limits assumed): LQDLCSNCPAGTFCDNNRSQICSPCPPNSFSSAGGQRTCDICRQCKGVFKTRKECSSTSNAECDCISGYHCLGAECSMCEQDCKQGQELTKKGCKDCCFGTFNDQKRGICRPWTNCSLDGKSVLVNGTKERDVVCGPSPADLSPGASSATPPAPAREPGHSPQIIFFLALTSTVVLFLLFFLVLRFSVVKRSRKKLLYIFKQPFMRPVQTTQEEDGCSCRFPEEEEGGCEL
T1 sequence (P51654 25-559 limits assumed): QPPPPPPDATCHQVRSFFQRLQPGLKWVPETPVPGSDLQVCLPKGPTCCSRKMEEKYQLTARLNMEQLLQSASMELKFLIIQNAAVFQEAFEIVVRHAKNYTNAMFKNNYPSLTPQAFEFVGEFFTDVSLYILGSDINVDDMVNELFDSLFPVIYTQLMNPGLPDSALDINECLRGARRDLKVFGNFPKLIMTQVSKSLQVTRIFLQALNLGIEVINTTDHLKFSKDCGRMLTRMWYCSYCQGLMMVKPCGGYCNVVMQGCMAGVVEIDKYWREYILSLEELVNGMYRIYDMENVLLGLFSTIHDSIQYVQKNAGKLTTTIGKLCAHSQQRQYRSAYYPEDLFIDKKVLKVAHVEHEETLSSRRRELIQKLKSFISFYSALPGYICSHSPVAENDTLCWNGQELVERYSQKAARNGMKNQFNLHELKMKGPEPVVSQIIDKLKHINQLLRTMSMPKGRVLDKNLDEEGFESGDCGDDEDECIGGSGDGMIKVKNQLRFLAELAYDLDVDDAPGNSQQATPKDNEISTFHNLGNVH
T5 sequence (P51654 25-554 limits assumed): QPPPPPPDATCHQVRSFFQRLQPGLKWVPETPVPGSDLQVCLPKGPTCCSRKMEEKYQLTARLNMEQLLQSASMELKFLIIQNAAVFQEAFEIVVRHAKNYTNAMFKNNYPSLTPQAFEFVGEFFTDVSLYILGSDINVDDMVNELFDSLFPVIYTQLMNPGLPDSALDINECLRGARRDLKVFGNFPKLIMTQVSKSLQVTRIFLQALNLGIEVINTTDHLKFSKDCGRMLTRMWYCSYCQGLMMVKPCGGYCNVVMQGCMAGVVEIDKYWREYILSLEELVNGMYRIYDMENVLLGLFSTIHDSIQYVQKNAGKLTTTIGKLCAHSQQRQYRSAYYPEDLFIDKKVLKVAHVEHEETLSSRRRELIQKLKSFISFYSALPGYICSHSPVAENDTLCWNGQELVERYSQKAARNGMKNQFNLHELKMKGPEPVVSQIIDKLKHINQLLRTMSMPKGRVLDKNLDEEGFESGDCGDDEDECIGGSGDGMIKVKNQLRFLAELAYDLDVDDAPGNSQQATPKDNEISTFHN

B1: bispecific multimeric protein SEQ ID NO: 54 (designed binder)
chain: QVQLVQSGAEVKKPGASVKVSCKASGYTFTDYEMHWVRQAPGQGLEWMGALDPKTGDTAYSQKFKGRVTLTADKSTSTAYMELSSLTSEDTAVYYCTRFYSYTYWGQGTLVTLVSSGGGGSGGGGSGGGGSGGGGSDVVMTQSPLSLPVTPGEPASISCRSSQSLVHSNRNTYLHWYLQKPGQSPQLLIYKVSNRFSGVPDRFSGSGSGTDFTLKISRVEAEDVGVYYCSQNTHVPPTFGQGTKLEIKGGGGSGGGGSGGGGSGVRLWATRQAMLGQVHEVPEGWLIFVAEQEELYVRVQNGFRKVQLEARTPLGGGGSGGGGSGGGGSQDSTSDLIPAPPLSKVPLQQNFQDNQFHGKWYVVGQAGNIRLREDKDPIKMMATIYELKEDKSYDVTMVKFDDKKCMYDIWTFVPGSQPGEFTLGKIKSFPGHTSSLVRVVSTNYNQHAMVFFKFVFQNREEFYITLYGRTKELTSELKENFIRFSKSLGLPENHIVFPVPIDQCIDGGGSGGAPEQKLISEEDLGSHHHHHHHHHH
With B1, the EC50 in assay [1] was found to be 0.15 nM; in assay [3], 5.99 nM; in the assay with human 4-1BB on cells [4], 5.49 nM; in assay [5], 0.63 nM; in [6] it was 3.07 nM. For the same molecule, in the assay with human 4-1BB on cells [2], the “EC50 [nM], 4-1BB bioassay (NFκB-luc2/4-1BB Jurkat luminescence), with HepG2 cells” value (“EC50 [nM], 4-1BB bioassay” for short) came to 0.38 nM. Besides, the Kd with hu4-1BB-Fc (R&D Systems) is 0.26 nM. For the same molecule, the koff with hu4-1BB-Fc (R&D Systems) was 1.99e-05 s⁻¹. For the same molecule, the kon in the assay with hu4-1BB-Fc (R&D Systems) amounted to 77900 M⁻¹ s⁻¹.

B2: bispecific multimeric protein SEQ ID NO: 55 (designed binder)
chain: QDSTSDLIPAPPLSKVPLQQNFQDNQFQGKWYVVGRAGNVGLREDKDPPKMWATIYELKEDKSYDVTNVRFARKKCTYSIGTFVPGSQPGEFTLGQIKSEPGGTANLVRVVSTNYNQHAMVFFKEVYQNREIFFIILYGRTKELTSELKENFIRFSKSLGLPENHIVFPVPIDQCIDGGGGGSGGGGSGGGGSGVRLWATRQAMLGQVHEVPEGWLIFVAEQEELYVRVQNGFRKVQLEARTPLGGGGSGGGGSGGGGSQDSTSDLIPAPPLSKVPLQQNFQDNQFHGKWYVVGQAGNIRLREDKDPIKMMATIYELKEDKSYDVTMVKFDDKKCMYDIWTFVPGSQPGEFTLGKIKSFPGHTSSLVRVVSTNYNQHAMVFFKFVFQNREEFYITLYGRTKELTSELKENFIRFSKSLGLPENHIVFPVPIDQCIDGGGSGGAPEQKLISEEDLGSHHHHHHHHHH
For the molecule B2, the EC50 amounted to 0.1 nM in [1]; 6.62 nM in [3]; 4.08 nM with human 4-1BB on cells [4]; 1.3 nM in [5]; 2.98 nM in assay [6]. Further, in the assay with human 4-1BB on cells [2], the “EC50 [nM], 4-1BB bioassay” value was determined as 0.69 nM. Further, in the assay with hu4-1BB-Fc (R&D Systems), the Kd came to 0.71 nM. Besides, the koff with hu4-1BB-Fc (R&D Systems) stood at 5.99e-05 s⁻¹. Also, the kon in the assay with hu4-1BB-Fc (R&D Systems) came out at 84000 M⁻¹ s⁻¹.

B3: multimeric protein SEQ ID NO: 52 (designed binder)
chain: QDSTSDLIPAPPLSKVPLQQNFQDNQFHGKWYVVGQAGNIRLREDKDPIKMMATIYELKEDKSYDVTMVKFDDKKCMYDIWTFVPGSQPGEFTLGKIKSFPGHTSSLVRVVSTNYNQHAMVFFKFVFQNREEFYITLYGRTKELTSELKENFIRFSKSLGLPENHIVFPVPIDQCIDGGGGGSGGGGSGGGGSQDSTSDLIPAPPLSKVPLQQNFQDNQFHGKWYVVGQAGNIRLREDKDPIKMMATIYELKEDKSYDVTMVKFDDKKCMYDIWTFVPGSQPGEFTLGKIKSFPGHTSSLVRVVSTNYNQHAMVFFKFVFQNREEFYITLYGRTKELTSELKENFIRFSKSLGLPENHIVFPVPIDQCIDGGGGGSGGGGSGGGGSGVRLWATRQAMLGQVHEVPEGWLIFVAEQEELYVRVQNGFRKVQLEARTPLGGSGGAPEQKLISEEDLGSHHHHHHHHHH
Consider B3, for which the “EC50 (read off the curve)” value in the assay with human 4-1BB on cells [7] was roughly 2 nM. Also, in the assay with human 4-1BB on cells [2], the “EC50 [nM], 4-1BB bioassay” value stood at 1 nM. For the same molecule, the EC50 in assay [3] was 3.36 nM; in assay [8], 0.12 nM; with human 4-1BB on cells [4], 1.5 nM. The Kd with hu4-1BB-Fc (R&D Systems) was 0.24 nM. In addition, the koff with hu4-1BB-Fc (R&D Systems) is 2.19e-05 s⁻¹. Moreover, the kon in the assay with hu4-1BB-Fc (R&D Systems) came out at 90400 M⁻¹ s⁻¹.

The values are drawn from patent US20230227568A1 (Pieris, published 2023).
